Data on four molecules can be found in patent publication US20230365705A1 (DYNAMICURE BIOTECHNOLOGY, published 2023).

For assay [1], the target named is T1, rh VEGFA (recombinant human VEGFA) (human, UniProt P15692-4 27-191, limits assumed). The experiment in a line: BLI (Octet), biotinylated rh VEGFA on streptavidin biosensors, sample in serial dilution. As to the method: (§1) The rh VEGFA was made in-house and biotinylated using EZ-LINK NHS-PEG4 biotin (Thermo Fisher Scientific). Streptavidin biosensors (Fortebio) were used to load biotinylated rh VEGFA protein (300 seconds in 5 μg/ml). […] Then the sensors were dissociated in 1× kinetics buffer for 600 seconds.
(In general: BLI is a label-free optical method that tracks binding on a fibre tip over time.)

For assay [2], the target named is T1, rh VEGFA (recombinant human VEGFA). The experiment in a line: BLI (Octet QKe), biotinylated rh VEGFA on streptavidin sensors. As to the method: as §1
The target in assay [3] is T2, Human CD93 recombinant protein (Sino Biological Inc, Catalog #12589-H08H) (human, UniProt Q9NPY3 22-580).
T2 construct: Biotinylated (EZ-LINK NHS-PEG4 biotin) in the BLI assays; also called hCD93; His-tagged human CD93
T2 sequence (looked up): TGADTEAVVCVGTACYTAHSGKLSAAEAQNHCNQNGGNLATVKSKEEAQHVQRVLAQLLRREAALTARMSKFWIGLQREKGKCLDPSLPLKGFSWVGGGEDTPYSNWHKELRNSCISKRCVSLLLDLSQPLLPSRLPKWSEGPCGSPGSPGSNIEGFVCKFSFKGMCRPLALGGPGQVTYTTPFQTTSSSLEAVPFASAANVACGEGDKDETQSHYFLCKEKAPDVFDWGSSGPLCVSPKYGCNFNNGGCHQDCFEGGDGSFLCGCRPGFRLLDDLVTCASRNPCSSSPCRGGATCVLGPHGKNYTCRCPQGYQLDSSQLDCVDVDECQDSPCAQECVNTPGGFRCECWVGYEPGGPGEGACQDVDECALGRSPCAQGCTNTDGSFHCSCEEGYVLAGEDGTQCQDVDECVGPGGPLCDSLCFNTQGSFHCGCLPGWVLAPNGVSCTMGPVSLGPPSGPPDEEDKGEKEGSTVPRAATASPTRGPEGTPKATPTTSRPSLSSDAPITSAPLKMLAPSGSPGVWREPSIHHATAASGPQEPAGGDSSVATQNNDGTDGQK
Kind of assay: ELISA, antigen coated at 1 µg/mL. As to the method: His-tagged human CD93, cyno CD93, human VEGFA, and mouse VEGFA were coated onto a 96 well plate at 1 μg/mL in 1× PBS overnight at 4′C. The plate was washed with ELISA wash buffer (Boston BioProduct, Inc.) and the wells were blocked with 3% BSA/PBS ELISA blocking buffer for 1 hour at 37′C. […] The plate was washed with ELISA wash Buffer. HRP conjugated Anti-human Fc was added and incubated for one hour at 37° C. The plate was washed with ELISA wash buffer and read in a microplate reader at 405 nm.
(In general: ELISA stands for enzyme-linked immunosorbent assay.)

Assay [4] addresses T3, Human CD93 on cells (human CD93 expressing CHO cells; HUVEC, U937 and KG1a cells) (human, UniProt Q9NPY3 22-652).
T3 construct: whole, on cells; also called hCD93 expressing CHO cells; hCD93 CHO cells
T3 sequence (looked up): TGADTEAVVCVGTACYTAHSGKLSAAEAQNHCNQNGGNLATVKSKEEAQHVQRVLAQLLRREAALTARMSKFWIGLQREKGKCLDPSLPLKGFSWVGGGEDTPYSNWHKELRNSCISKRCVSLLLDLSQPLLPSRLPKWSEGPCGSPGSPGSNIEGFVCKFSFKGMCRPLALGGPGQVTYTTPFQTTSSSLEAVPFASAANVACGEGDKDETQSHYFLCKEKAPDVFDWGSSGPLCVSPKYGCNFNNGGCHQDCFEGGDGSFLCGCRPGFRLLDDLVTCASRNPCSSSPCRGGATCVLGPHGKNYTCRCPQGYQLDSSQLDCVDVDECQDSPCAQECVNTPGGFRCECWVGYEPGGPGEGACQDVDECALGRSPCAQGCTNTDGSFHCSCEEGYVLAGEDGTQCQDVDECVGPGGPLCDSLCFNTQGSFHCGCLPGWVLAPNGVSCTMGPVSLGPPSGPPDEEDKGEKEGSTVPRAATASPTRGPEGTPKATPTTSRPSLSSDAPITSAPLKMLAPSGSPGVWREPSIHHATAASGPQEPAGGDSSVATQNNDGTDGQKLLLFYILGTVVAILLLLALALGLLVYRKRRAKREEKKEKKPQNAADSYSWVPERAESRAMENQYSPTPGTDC
Kind of assay: flow cytometry on human CD93 expressing CHO cells (10 µg/ml by the text).

Assay [5] has as its target T2, Human CD93 recombinant protein (Sino …). The experiment in a line: ELISA, His-tagged human CD93 coated, OD450. As to the method:
His-tagged human CD93 was coated onto a 96 well plate at 1 μg/mL in 1×PBS overnight at 4° C. The plate was washed with ELISA wash buffer (Boston BioProduct, Inc.) and the wells were blocked with ELISA blocking buffer for 1 hour at 37° C. […] The plate was washed with ELISA wash Buffer. […] The plate was washed with ELISA wash Buffer. HRP substrate was added for indirect detection of the antibodies binding to CD93.

For assay [6], the target named is T3, Human CD93 on cells (human CD93 …). The experiment in a line: flow cytometry, CHO cells overexpressing human CD93, antibody 0.01ug, mIgG1 as control, APC-A. (Flow cytometry measures light scatter and fluorescence of single cells or particles in a stream.)
Assay [7] has the same target. The experiment in a line: flow cytometry titration on KG1a cells; column head printed kd, unit from the axis log (concentration (M)).
Assay [8] has the same target. The experiment in a line: flow cytometry titration on U937 cells; column head printed kd, unit from the axis log (concentration (M)).
Assay [9] concerns the target T2, Human CD93 recombinant protein (Sino …). Kind of assay: ELISA, hCD93-His coated, OD450. As to the method: His-tagged human CD93 was coated onto a 96 well plate at 1 μg/mL in 1×PBS overnight at 4° C. The plate was washed with ELISA wash buffer (Boston BioProduct, Inc.) and the wells were blocked with ELISA blocking buffer for 1 hour at 37° C. Purified antibodies were serially diluted in ELISA blocking buffer (Boston BioProduct, Inc.) and incubated on the receptor for 1 hour at 37° C. The plate was washed with ELISA wash Buffer. […] The plate was washed with ELISA wash buffer. HRP substrate was added for indirect detection of the antibodies binding to CD93.

Assay [10] shares this target. The experiment in a line: BLI (Octet QKe), biotinylated human CD93 on streptavidin biosensors. The protocol: The binding affinity of anti-CD93 antibodies was determined with bio-layer interferometry using Octet QKe (Fortebio). […] Human CD93 recombinant protein (Sino Biological Inc, Catalog #12589-H08H) was biotinylated using EZ-LINK NHS-PEG4 biotin (Thermo Fisher Scientific). Streptavidin biosensors (Fortebio) were used to load biotinylated CD93 protein (300 seconds in 5 μg/ml). Baseline was stabilized for 60 seconds in 1×kinetics buffer (Fortebio) before anti-CD93 antibodies, at a serial dilution, were allowed to associate for 300 seconds with captured protein. Then the sensors were dissociated in 1× kinetics buffer for 600 seconds. […] (FIG. 41).

For assay [11] the target is unchanged. Kind of assay: summary table, column Octet (hCD93).
For assay [12] the target is unchanged. Kind of assay: summary table, column ELISA (hCD93).
Assay [13] concerns the target T3, Human CD93 on cells (human CD93 …). The experiment in a line: flow cytometry on human CD93 expressing CHO cells. As to the method: Human CD93 expressing CHO cells were detached by incubation with TrypLE reagents (Thermo Fisher), which preserves the integrity of CD93 on the cell surface. Then the cells were incubated with serially diluted anti-CD93 antibodies for 30 minutes in 4° C. After washing by FACS buffer, the cells were incubated with Alexa Fluor 647 conjugated anti-human IgG (Jackson ImmunoResearch) for 30 minutes in 4° C. After washing by FACS buffer twice, the samples were acquired in NovoCyte Flow Cytometer and analyzed by NovoExpress software.

In assay [14] the target is T2, Human CD93 recombinant protein (Sino …). The experiment in a line: ELISA, His-tagged human CD93 coated, OD450. As to the method:
His-tagged human CD93 was coated onto a 96 well plate at 1 μg/mL in 1×PBS overnight at 4° C. The plate was washed with ELISA wash buffer (Boston BioProduct, Inc.) and the wells were blocked with ELISA blocking buffer for 1 hour at 37° C. […] The plate was washed with ELISA wash Buffer. HRP-conjugated anti-human Fc antibody was incubated for 1 hour at 37° C. The plate was washed with ELISA wash Buffer. HRP substrate was added for indirect detection of the antibodies binding to CD93.
This is another data set of the same source.

“And” between values parts separate entries of the source, which are not always exact repeats. Equal entries are not always repeated.

B1: humanized 7F3/VEGFRFc (h7F3/VEGFRFc) (bispecific antibody, human IgG1, kappa)
heavy: not shown
light: EIVLTQSPSSLSASVGDRVTITCRASSSVSSSYLHWYQQKPGKAPKLLIYSTSNLAFGVPSRFSGSGSGTSYTFTISSLQPEDIATYYCQQYSGYPLTFGSGTKLEIKRTVAAPSVFIFPPSDEQLKSGTASVVCLLNNFYPREAKVQWKVDNALQSGNSQESVTEQDSKDSTYSLSSTLTLSKADYEKHKVYACEVTHQGLSSPVTKSFNRGEC
notes: Full-length human IgG1 with VEGF-trap on the C-terminus of both heavy chains; also called humanized 7F3-Aflibercept; h7F3-VEGF trap
By Kd is commonly meant the constant that tells how readily two partners part at equilibrium. What is called koff is the first-order rate constant of dissociation. One may read the kon as the second-order rate constant of association. For B1, in assay [1], the Kd amounted to 2010 pM, the koff is 0.000121 s⁻¹ and the kon was determined as 60300 M⁻¹ s⁻¹. In assay [2], the Kd worked out at 2000 pM.

B2: chimeric 7F3/VEGFRFc (chimeric 7F3-Aflibercept) (bispecific antibody, human IgG1, kappa)
heavy: not shown
light: ENVLTQSPAIMSASPGEKVTMTCRASSSVSSSYLHWYQQKSGASPKLWIYSTSNLAFGVPARFSGSGSGTSYSLTISSVEAEDAATYYCQQYSGYPLTFGSGTKLEIKRTVAAPSVFIFPPSDEQLKSGTASVVCLLNNFYPREAKVQWKVDNALQSGNSQESVTEQDSKDSTYSLSSTLTLSKADYEKHKVYACEVTHQGLSSPVTKSFNRGEC
notes: also called chimeric 7F3/VEGFR construct
As for B2, the binding result in assay [3] and in assay [4] was “binds” each time.

B3: humanized 17B10 (VH3VL3, i.e., H3L3) with a chimeric Fc containing mouse IgG1 CH2 and CH3 domains and human CH1 domains (antibody, V domains shown)
VH: QVQLVQSGPEVKKPGESLKISCKASGYAFSSYWLNWVRQMPGKGLEWMGRIYPGDGDTDYNGKFKGQVTISADKSSGTAYLQLSSLKASDTAVYFCVRGDGYWAMDYWGQGTLVTVSS
VL: DIVMTQSPDSLAVSLGERATINCRFSKSLLHSNGITYLYWYQQKPGQPPKLLIYQMSNLASGVPDRFSGSGSGTDFTLTISSLQAEDVAVYYCAQNLELPWTFGGGTKLEIK
notes: Human CH1, mouse IgG1 CH2 and CH3; also called h17B10-H3L3; humanized 17B10-mFc
What is called EC50 is the concentration that produces a half-maximal response. For B3, in assay [5], the EC50 was 213 pM. Also, the “M2 gate, % of cells” value in assay [6] was 93%. For the same molecule, the Kd in assay [7] was 77.2 pM and 95.2 pM; in assay [8], 104 pM and 94.4 pM.

B4: 16E4-hIgG1 (recombinant chimeric 16E4) (antibody, V domains shown)
VH: QVQLQQPGAELVKPGASVKLSCKASGYTFTSYWMHWVKQRPGQGLEWIGEIDPSASYTYYNQKFKGKATLTVDKSSSTAYMQLSSLTSEDSAVYYCARSVYYGNKYFDVWGAGTTVTVSS
VL: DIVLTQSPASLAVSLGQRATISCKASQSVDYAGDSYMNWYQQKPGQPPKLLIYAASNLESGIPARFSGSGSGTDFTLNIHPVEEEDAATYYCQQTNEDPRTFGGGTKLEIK
notes: the same paragraph once calls it 'humanized'; also called recombinant 16E4
Regarding B4, the EC50 worked out at 22 pM in [9], 41 pM in [12], 240 pM in assay [13] and 41 pM in assay [14]. Further, the Kd in assay [10] and in assay [11] was 135 pM each time. In assay [10], the koff worked out at 2.93e-05 s⁻¹. Further, the kon in assay [10] turned out to be 217000 M⁻¹ s⁻¹.
